167 variants from the RNAGym collection of RNA variant scans (doi:10.1093/nar/gkz1192) can be followed below.

First the molecules themselves.
B1: CPEB3 Ribozyme (parent)
chain: UAACAGGGGGCCACAGCAGAAGCGUUCACGUCGCAGCCCCUGUCAGAUUCUGGUGAAUCUGCGAAUUCUGCUGUAUAUCUC

In this data set the parent is B1. Nature of the data set: self-cleavage, relative activity (ratio to wild type); higher = more cleavage; in vitro, sequencing. In outline: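 After error-prone PCR and barcoding, CPEB3 ribozyme mutant libraries were transcribed with T7 RNA polymerase at 37°C for 5 hours, then given 15 min with DNase I before an EDTA stop, and they cleaved during both steps. Reverse transcription with template switching preceded Illumina sequencing. Relative activity divides a variant's cleaved/total read fraction by the unmutated ribozyme's. At least 5 reads were required per variant, and three batches were averaged.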
Consider G30U U76C, for which the self-cleavage is 0.39. For C29U A45G the value was 0.42. As for C29U A45U, the self-cleavage amounted to 0.19. On to G30A A47U, for which the self-cleavage amounted to 0.18. Turning to G30A A47G, the self-cleavage was 0.41. Regarding G30A U51A, the self-cleavage was determined as 0.15. G30A U51G: the self-cleavage stood at 0.1. Next, C29U A47G: 0.55; C29U A47U: 0.24; U31C A35G: 1.21.

As to U31C A35U, the self-cleavage was determined as 0.32.

As for U31C A35C, the self-cleavage amounted to 0.46. For U31A C81U the value was 0.58. Next, C29U C40U: 0.51. Regarding C29U G42U, the self-cleavage stood at 0.23. C29U G42A: the self-cleavage worked out at 0.21. With G30U G70C, the self-cleavage is 0.15. For G30C A45C, the self-cleavage is 0.34. Next, G30C A45U: 0.09; G30A G55A: 0.2; G30C U48C: 0.16. For U31A U51G the value was 0.33; for U31A U51A, 0.59; for U31A U51C, 0.46. Turning to U31A A35U, the self-cleavage was 0.3. Take U31A A35C: the self-cleavage is 0.27. Regarding U31A A35G, the self-cleavage amounted to 1.25. Next, G30C U51C: 0.19; G30A A57G: 0.29; G30A U60C: 0.15.

On to G30A U60A, for which the self-cleavage was found to be 0.08. For G30A U60G the value was 0.34.

G30U G33A: the self-cleavage turned out to be 0.24.

Take U31A C40U: the self-cleavage came out at 0.27. Next, G30C A57G: 0.25; C29G U60C: 0.11; G30C U60C: 0.12. On to G30C U60A, for which the self-cleavage stood at 0.13. Turning to C29U C37U, the self-cleavage turned out to be 0.34. With G30C A56G, the self-cleavage was found to be 0.16. As to C29U C81A, the self-cleavage came out at 0.71. With U31A U43C, the self-cleavage is 0.37. Next, U31A U43A: 0.7.

Turning to U31A U43G, the self-cleavage turned out to be 0.33.

G30A U67C: the self-cleavage was determined as 0.18. Next, G30A U67A: 0.22; C29U U41A: 0.43. For the variant C29U U41C, the self-cleavage is 0.49. For C29U U41G the value was 0.26; for U31A U41G, 0.29.

Consider U31A U41C, for which the self-cleavage came to 0.51. Turning to U31A U41A, the self-cleavage turned out to be 0.33. On to C29U A57G, for which the self-cleavage came to 0.41.

On to C29U A57U, for which the self-cleavage was 0.2. For U31A G52A the value was 0.69; for U31A G52C, 0.5. Regarding G30C C62U, the self-cleavage is 0.06.

In the case of G30A G73U, the self-cleavage came to 0.46. For C29U U80A the value was 0.48. Next, C29U U80C: 0.58; G30C U54A: 0.22; G30A A35G: 0.22. For G30A A35U the value was 0.15. With G30A U31C, the self-cleavage came to 0.35. Next, G30A U31G: 0.21; G30A U31A: 0.32. Next, U31A U78C: 0.46; U31A U78A: 0.41. For U31A U78G the value was 0.46; for U31A U66C, 0.26. Consider U31A U48A, for which the self-cleavage worked out at 0.13. Regarding U31A U48G, the self-cleavage came out at 0.16.

In the case of U31A U48C, the self-cleavage came out at 0.29. Next, U31A C44U: 0.23. As for U31A C38U, the self-cleavage amounted to 0.53. For G30A C34G the value was 0.38; for C29G U72C, 0.26; for G30U U80C, 0.17. Take U31A A57G: the self-cleavage amounted to 0.53. As to C29U U74C, the self-cleavage is 0.97. For G30U A56G, the self-cleavage was determined as 0.26. Next, G30U A45G: 0.28; G30A U48C: 0.27; G30A U48G: 0.14. For G30A U48A the value was 0.35; for U31A G42C, 0.53; for U31A G42A, 0.18. Turning to G30A U74A, the self-cleavage is 0.29. For U31A A64G the value was 0.39; for U31A A64C, 0.14; for U31A A64U, 0.29. Next, U31A C59U: 0.37; U31A C59G: 0.19. U31A C59A: the self-cleavage worked out at 0.17. For the variant G30A G63U, the self-cleavage came to 0.13.

For the variant G30A G46A, the self-cleavage amounted to 0.15. Next, C29U U48C: 0.25; G30U C38U: 0.26; C29U C44A: 0.14. Regarding G30A C68U, the self-cleavage amounted to 0.12.

On to G30C A64U, for which the self-cleavage stood at 0.2.

As to U31A U69G, the self-cleavage worked out at 0.27. As for U31A U69C, the self-cleavage is 0.3.

Consider U31A U69A, for which the self-cleavage worked out at 0.29. Regarding C29U U49A, the self-cleavage is 0.16. On to C29U U49C, for which the self-cleavage amounted to 0.39.

Regarding U31A C32G, the self-cleavage was 0.12.

On to U31A C32U, for which the self-cleavage came to 0.13.

On to G30A G61C, for which the self-cleavage is 0.24. Consider U31A U67C, for which the self-cleavage came to 0.2. U31A U67A: the self-cleavage worked out at 0.34.

With C29G U67C, the self-cleavage was found to be 0.12. Next, G30C G33U: 0.19; G30U C40U: 0.2; C29U U60A: 0.2. C29U U60G: the self-cleavage stood at 0.19. For C29U U60C the value was 0.24; for G30C G73A, 0.11; for G30A U58C, 0.16. Next, G30A U58A: 0.09; G30A G52A: 0.21.

As for G30A U76C, the self-cleavage is 0.26. For G30A U76A the value was 0.13; for U31C, 0.87; for U31A, 0.56. Regarding G30C U76A, the self-cleavage is 0.17. For G30U U60C the value was 0.15; for G30A A45G, 0.25; for G30A A45C, 0.17. As to G30A A45U, the self-cleavage came to 0.32. For G30C U67G the value was 0.09. For G30C U67A the value was 0.18; for G30U U78C, 0.09. As to U31A G53C, the self-cleavage worked out at 0.51.

In the case of U31A G53A, the self-cleavage was 0.53. On to C29U C68U, for which the self-cleavage is 0.42.

Consider U31A C39U, for which the self-cleavage came to 0.34. As for G30A U80C, the self-cleavage amounted to 0.41. Regarding G30A U80A, the self-cleavage turned out to be 0.22. Next, C29U U66C: 0.37; C29U U66A: 0.22; G30C: 0.28. Next, G30U: 0.25; G30A: 0.29.

On to C29U U78C, for which the self-cleavage is 0.44.

In the case of C29U U78G, the self-cleavage amounted to 0.61. For C29U U78A the value was 0.36; for G30A U72C, 0.33; for G30A U72A, 0.2.

As for C29U G73C, the self-cleavage is 1.15. In the case of U31A C37U, the self-cleavage amounted to 0.16.

Consider G30C U31C, for which the self-cleavage worked out at 0.26. Next, G30C U43C: 0.25; G30C A65C: 0.11; G30C A65U: 0.3.

As to G30C A65G, the self-cleavage came to 0.11. As to G30A C39U, the self-cleavage stood at 0.21.

As for U31A A65U, the self-cleavage is 0.37.

As to U31A A65G, the self-cleavage is 0.36. For G30A U43C the value was 0.24; for G30A U43A, 0.24; for G30C U41C, 0.28.

Take U31A A56U: the self-cleavage worked out at 0.39. Next, U31A A56G: 0.48; C29G U78C: 0.21.

As for G30A C71U, the self-cleavage is 0.18.

Consider G30C U49C, for which the self-cleavage was determined as 0.08.
